# B1: ΔN-KcsA (KcsA lacking the first 18 amino acids, Δ1–18) (domain or fragment, Streptomyces lividans, UniProt P0A334 19-160, looked up)
# chain: RHGSALHWRAAGAATVLLVIVLLAGSYLAVLAERGAPGAQLITYPRALWWSVETATTVGYGDLYPVTLWGRLVAVVVMVAGITSFGLVTAALATWFVGREQERRGHFVRHSEKAAEEAYTRTTRALHERFDRLERMLDDNRR
# B2: Potassium channel KcsA, wild-type, P0A334 1-160 (natural protein)
# chain: MPPMLSGLLARLVKLLLGRHGSALHWRAAGAATVLLVIVLLAGSYLAVLAERGAPGAQLITYPRALWWSVETATTVGYGDLYPVTLWGRLVAVVVMVAGITSFGLVTAALATWFVGREQERRGHFVRHSEKAAEEAYTRTTRALHERFDRLERMLDDNRR
# How the values were obtained:
# [1] = molecular target: the molecule itself; experiment: SDS-PAGE
# [2] = molecular target: T1, Potassium channel KcsA, wild-type (Streptomyces lividans), P0A334; experiment: SDS-PAGE; settings: remark: other sources report otherwise
# T1 chain: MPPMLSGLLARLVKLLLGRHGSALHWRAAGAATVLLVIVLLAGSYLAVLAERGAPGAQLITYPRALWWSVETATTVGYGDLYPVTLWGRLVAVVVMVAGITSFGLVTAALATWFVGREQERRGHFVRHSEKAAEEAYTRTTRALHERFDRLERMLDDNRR
Binder,stoichiometry N [1],stoichiometry N [2]
B1,4,
B2,,4
